# Measured values reported in article PMC11441981.
# B1: GST-tagged CG9590 (Drosophila FAM114A) [Drosophila] / Vap33 [Drosophila (endogenous in S2 cells)] (parent)
# chain 1: MAKNPKKEEDGGNDWAQSDEDDNWDDWGDDDDKFVHVEKEQQPQEKVSSRNDAKGTAENQEKLETPRISAPATASATSSSWGLWGGKLSSVLTTATEGLGTITTQVNQGLNQIIGVPDPEELARINVAEKAEKAAKAPPEENVDDEKESSAAFGLDFVTNLGSKVLNTGLDTLEGIGKKTMTILQDNDPKLMNKRKLLGLEANSPNLSAVLLEAKKEADQMEQSLQQLQLKRQKAQLRFEILFENYCGLVHFEALEILSKESRLKLDTLLDAVSGNARAELQETINEVKELIELEDLDVESEGDYEAEELSERLAATIKDAELGIQFDDIANHWTQSLSWLTSEEATAADLEQAYAKSIHALSEACALEMCKLHKIAELLLVKPHHSTANEVDGVVNLCQQFNGHLQGLSHRFAAVLSGKSETEESKGRVSTFFSEMLSAVQFIEKAYKLFTPILQMGAV
# chain 2: MSKSLFDLPLTIEPEHELRFVGPFTRPVVTIMTLRNNSALPLVFKIKTTAPKRYCVRPNIGKIIPFRSTQVEICLQPFVYDQQEKNKHKFMVQSVLAPMDADLSDLNKLWKDLEPEQLMDAKLKCVFEMPTAEANAENTSGGGAVGGGTGAAGGGSAGANTSSASAEALESKPKLSSEDKFKPSNLLETSESLDLLSGEIKALRECNIELRRENLHLKDQITRFRSSPAVKQVNEPYAPVLAEKQIPVFYIAVAIAAAIVSLLLGKFFL
# Variants of: B1
# Experiment: GST pull-down from S2 cell lysate with mass spectrometry (volcano plot of spectral intensities)
# Details: three biological replicates, read off a plot
row,Variant,screen value [log2]
1,chain 1 W24A W27A,5.2
